Measured values taken from patent publication US20260049138A1 (Chugai, published 2026).
Changes are numbered by the printed parent chain. Names and notes keep the numbering of the source.

B1: CE115HA000 K52Y one-arm antibody (antibody, human IgG1, kappa, L234A L235A, N297A, name in Kabat numbering)
heavy: QVQLVESGGGVVQPGRSLRLSCAASGFTFSNAWMHWVRQAPGKGLEWVAQIYAKSNNYATYYAESVKGRFTISRDDSKNSLYLQMNSLKTEDTAVYYCRYVHYGAYYGVDAWGQGTTVTVSSASTKGPSVFPLAPSSKSTSGGTAALGCLVKDYFPEPVTVSWNSGALTSGVHTFPAVLQSSGLYSLSSVVTVPSSSLGTQTYICNVNHKPSNTKVDKKVEPKSCDKTHTCPPCPAPEAAGGPSVFLFPPKPKDTLMISRTPEVTCVVVDVSHEDPEVKFNWYVDGVEVHNAKTKPREEQYASTYRVVSVLTVLHQDWLNGKEYKCKVSNKALPAPIEKTISKAKGQPREPQVYTLPPSRCELTKNQVSLSCAVKGFYPSDIAVEWESNGQPENNYKTTPPVLDSDGSFFLVSKLTVDKSRWQQGNVFSCSVMHEALHNHYTQKSLSLSPDYKDDDDK
chain: EPKSSDKTHTCPPCPAPELLGGPSVFLFPPKPKDTLMISRTPEVTCVVVDVSHEDPEVKFNWYVDGVEVHNAKTKPREEQYNSTYRVVSVLTVLHQDWLNGKEYKCKVSNKALPAPIEKTISKAKGQPREPQVCTLPPSRDELTKNQVSLWCLVKGFYPSDIAVEWESNGQPENNYKTTPPVLDSDGSFFLYSKLTVDKSRWQQGNVFSCSVMHEALHNRYTQKSLSLSP
light: DIVMTQSPLSLPVTPGEPASISCRSSQSLVHSNRNTYLHWYQQKPGQAPRLLIYKVSNRFSGVPDRFSGSGSGTDFTLKISRVEAEDVGVYYCGQGTQVPYTFGQGTKLEIKRTVAAPSVFIFPPSDEQLKSGTASVVCLLNNFYPREAKVQWKVDNALQSGNSQESVTEQDSKDSTYSLSSTLTLSKADYEKHKVYACEVTHQGLSSPVTKSFNRGEC
B2: CE115HA000 K52bA one-arm antibody (antibody, human IgG1, kappa, L234A L235A, N297A, name in Kabat numbering)
heavy: B1 heavy with Y52K, K54A
chain: B1 chain
light: B1 light
B3: CE115HA000 K52bD one-arm antibody (antibody, human IgG1, kappa, L234A L235A, N297A, name in Kabat numbering)
heavy: B1 heavy with Y52K, K54D
chain: B1 chain
light: B1 light
B4: CE115HA000 K52bL one-arm antibody (antibody, human IgG1, kappa, L234A L235A, N297A, name in Kabat numbering)
heavy: B1 heavy with Y52K, K54L
chain: B1 chain
light: B1 light
B5: CE115HA000 K52bN one-arm antibody (antibody, human IgG1, kappa, L234A L235A, N297A, name in Kabat numbering)
heavy: B1 heavy with Y52K, K54N
chain: B1 chain
light: B1 light
B6: CE115HA000 K52bQ one-arm antibody (antibody, human IgG1, kappa, L234A L235A, N297A, name in Kabat numbering)
heavy: B1 heavy with Y52K, K54Q
chain: B1 chain
light: B1 light
B7: CE115HA000 K52bR one-arm antibody (antibody, human IgG1, kappa, L234A L235A, N297A, name in Kabat numbering)
heavy: B1 heavy with Y52K, K54R
chain: B1 chain
light: B1 light
B8: CE115HA000 K52bS one-arm antibody (antibody, human IgG1, kappa, L234A L235A, N297A, name in Kabat numbering)
heavy: B1 heavy with Y52K, K54S
chain: B1 chain
light: B1 light
B9: CE115HA000 K52bY one-arm antibody (antibody, human IgG1, kappa, L234A L235A, N297A, name in Kabat numbering)
heavy: B1 heavy with Y52K, K54Y
chain: B1 chain
light: B1 light
B10: CE115HA000 K64A one-arm antibody (antibody, human IgG1, kappa, L234A L235A, N297A, name in Kabat numbering)
heavy: B1 heavy with Y52K, K67A
chain: B1 chain
light: B1 light

Biological target: T1, CD3ε homodimer protein (human, UniProt P07766 23-126, limits assumed, sulfo-tag or biotin label in the ECL assays; amine-coupled to the chip in SPR)
T1 construct: also called human CD3ε homodimer protein; CD3 (CD3ε)
T1 sequence (P07766 23-126 limits assumed): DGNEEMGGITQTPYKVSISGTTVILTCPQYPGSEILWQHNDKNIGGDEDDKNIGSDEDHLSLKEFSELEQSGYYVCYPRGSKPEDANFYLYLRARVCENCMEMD
Assay: SPR Biacore T200; CD3ε homodimer on CM4 chip;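 further: Single-residue variant antibodies injected as analyte over CD3ε homodimer immobilized by amine coupling, run at 25 °C in HBS-EP+ buffer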

Binder | ratio of amounts bound Z=Y/X (altered form / CE115HA000)
B1 | 0.18
B2 | 0.67
B3 | 0.27
B4 | 0.61
B5 | 0.27
B6 | 0.6
B7 | 1.11
B8 | 0.68
B9 | 0.74
B10 | 0.82
